According to paper PMC3084761:

Biological target: OS-9 fused to the N-terminus of EYFP (pEYFP-N1-OS-9) (human) (UniProt Q13438)
Test: FRET or BRET; live-cell confocal FRET of ECFP (donor) and EYFP (acceptor) fusions in HEK293 cells transfected 48 h; acceptor/donor plasmid ratios 1:1 to 5:1; FRET efficiency against A/D ratio fitted to a 1:1 binding model

OS-9 fused to the N-terminus of EYFP (pEYFP-N1-OS-9) (human), sequence (Q13438 26-667): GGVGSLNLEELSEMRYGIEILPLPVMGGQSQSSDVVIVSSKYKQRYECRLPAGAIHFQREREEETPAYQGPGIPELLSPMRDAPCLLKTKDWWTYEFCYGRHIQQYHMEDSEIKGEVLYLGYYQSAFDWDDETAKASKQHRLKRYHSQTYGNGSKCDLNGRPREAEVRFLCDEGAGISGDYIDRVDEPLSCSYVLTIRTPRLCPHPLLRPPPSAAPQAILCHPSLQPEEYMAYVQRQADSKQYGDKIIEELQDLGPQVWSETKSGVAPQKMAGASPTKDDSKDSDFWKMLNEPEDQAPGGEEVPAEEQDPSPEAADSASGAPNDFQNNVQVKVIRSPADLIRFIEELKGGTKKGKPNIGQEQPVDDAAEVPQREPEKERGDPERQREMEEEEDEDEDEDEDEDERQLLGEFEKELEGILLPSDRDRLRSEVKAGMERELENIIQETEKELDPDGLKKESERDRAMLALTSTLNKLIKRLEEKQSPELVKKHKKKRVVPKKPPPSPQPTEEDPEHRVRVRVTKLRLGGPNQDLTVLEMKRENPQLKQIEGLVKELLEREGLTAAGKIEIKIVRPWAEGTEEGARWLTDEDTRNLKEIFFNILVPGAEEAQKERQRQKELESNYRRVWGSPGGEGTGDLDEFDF

PHD2-ECFP (PHD2 coding sequence in pECFP-N1) (from UniProt Q9GZT9 1-426) (enzyme)
maximum FRET efficiency: < 10%
